For the assay, the target named is Recombinant human IGF-II R (cation-independent mannose-6-phosphate receptor, CI-MPR) (human) (UniProt P11717). In words: SPR. Background: SPR reads the build-up and loss of mass on a sensor chip optically.

Take “cetuximab M6P-glycoform 9 (cetuximab carrying the M6P tetrasaccharide moiety at the Fc glycosylation site) (antibody)”: the Kd is 70.3 nM.

For the substance “cetuximab M6P-glycoform 10 (cetuximab carrying the bis-phosphorylated heptasaccharide moiety at the Fc glycosylation site) (antibody)”, the Kd worked out at 29.6 nM.

For the substance “trastuzumab M6P-glycoform 3 (trastuzumab carrying the M6P tetrasaccharide moiety at the Fc glycosylation site) (antibody)”, the Kd was found to be 28.6 nM.

Regarding “trastuzumab M6P-glycoform 6 (trastuzumab carrying the M6P-Man3GlcNAc2 glycan at the Fc glycosylation site) (antibody)”, the Kd stood at 700 nM.

For “trastuzumab M6P-glycoform 7 (trastuzumab carrying the bis-phosphorylated heptasaccharide moiety at the Fc glycosylation site) (antibody)”, the Kd was 5.4 nM.

By Kd is commonly meant the free concentration of one partner at which half of the binding sites on the other are occupied at equilibrium, for simple one-to-one binding.

Source of the values: article PMC9492806.
